Data on 3 molecules can be found in patent US20240245805A1 (Orna Therapeutics, Inc., priority 2020, published 2024).

B1: Human enterovirus C105 (nucleic acid, listed as Enterovirus sp.)
DNA: CCCCTAGGATCCACTGGATGTCAGTACACTGGTATCGTGGTACCTTTGTACGCCTGTTTTATACCCCCTTCCCCGCAACTTTAGAAGCATCAAAAGCACCGCTCAATAGTCACCACACCCCCAGTGTGGTTTCGAGCAAGCACTTCTGTTTTCCCGGTTGCGTCCCATATGCTGTGCAAACGGCAAAAAGGGACAATATCGTTACCCGCTTGTATACTACGGGAAACCTAGTACCACCATTGATTGTGTTGAGAGTTGCGCTCATCACCTTTCCCCGGTGTAGCTCAGGCCGATGAGGCTCAGAATCCCCCACAGGTGACTGTGTCTGAGCCTGCGTTGGCGGCCTGCCCTCGCCTTATGGCGTGGGACGCTTGATACATGACATGGTGCGAAGAGTCTACTGTGCTATGCAAGAGTCCTCCGGCCCCTGAATGTGGCTAATCCTAACCACTGATCCCACGCACGCAAACCAGTGTGTAGTGGGTCGTAACGCGCAAGTCGGTGGCGGAACCAACTACTTTGGGTGACCGTGTTTCCTTTATTACTTATTGAATGTTTATGGTGACAATTGTTTGATTCAGTTGTTGCCATTCTCTACATTCATTTACCCAGCATCAAACCAATTGAACTGTTACA
B2: Apodemus agrarius picornavirus strain Longquan-Aa118 (nucleic acid)
DNA: TTACTCAGCGTAACTACTCCGGGTTACGTGATGAAGAAGAGGCTACGGAGATTCTCGGGCTACGGCCCTGGAGCCACTCCGGCTCCTAAAGATTTAGAAGTTTGAGCACACCCGCCCACTAGGGCCCCCCATCCAGGGGGGCAACGGGCAAGCACTTCTGTTTCCCCGGTATGATCTGATAGGCTGTAACCACGGCTGAAACAGAGATTATCGTTATCCGCTTCACTACTTCGAGAAGCCTAGTAATGATGGGTGAAATTGAATCCGTTGATCCGGTGTCTCCCCCACACCAGAAACTCATGATGAGGGTTGCCATCCCGGCTACGGCGACGTAGCGGGCATCCCTGCGCTGGCATGAGGCCTCTTAGGAGGACGGATGATATGGATCTTGTCGTGAAGAGCCTATTGAGCTAGTGTCGACTCCTCCGCCCCCGTGAATGCGGCTAATCCTAACCCCGGAGCAGGTGGGTCCAATCCAGGGCCTGGCCTGTCGTAATGCGTAAGTCTGGGACGGAACCGACTACTTTCGGGAAGGCGTGTTTCCATTTGTTCATTATTTGTGTGTTTATGGTGACAACTCTGGGTAAACGTTCTATTGCGTTTATTGAGAGATTCCCAACAATTGAACAAACGAGAACTACCTGTTTTATTAAATTTACACAGAGAAGAATTACA
modifications: source: /note="Description of Unknown: Apodemus agrarius picornavirus strain Longquan-Aa118 sequence"
B3: Human enterovirus 109 (nucleic acid, listed as Enterovirus sp.)
DNA: TTTAAAACAGCCTGGGGGTTGTTCCCACCCCCAGGGCCCACTGGGCGTTAGTACTCTGGTATCGCGGTACCTTAGTATGCCTGTTTTATGTCTCCTTTCCCCCGCAACTTTAGAAGTAATCAAGTTATGGCTCAACAGTCGCCACACCCCCAGTGTGGTTCCGAGCAAGCACTTCTGTTCCCCGGTTGCGTCTTATATGCTGTGTGAACGGCAGAAAGGGACAATATCGTTATCCGCTCAACTACTACGGGAAGCCTAGTACCACCATGGATTGACCTGAAAGTTGCGTTCAGCGCACCCCCAGCGCAGCTCAGGCCGATGAGGCTCCGAATACCCCACGGGCGACCGTGTCGGAGCCTGCGTTGGCGGCCTGCCCACGTTGCAAAACGTGGGACGCTCATTTCATGACATGGTGCGAAGAGCCTACTGTGCTAGTTGAGAGTCCTCCGGCCCCTGAATGTGGATAATCCTAACCACTGAACCTACGGGCGCAAACCAGCGTCTGGTAGGCCGTAACGCGCAAGTCGGTGGCGGAACCAACTACTTTGGGTGTCCGTGTTTCCTTTTATCTTTTTGAATGTTTATGGTGACAATTGTTGTGTACAGTTGTTACCATAGTTTGCATTCAGAAATAAACCTAACACTTTCCAATTATTTGTTACA

The test system of the data set is HEK293 cells. Format: cell-based, human. To be noted: circular RNA encoding Gluc with the listed IRES (UTR truncated to 675 nt) transfected into HEK293 cells; supernatant after 24 hours.
As for B1, the “Expression (luminescence from secreted Gluc protein)” value (shortened to “Expression”) was found to be 5.49E+05.

On to B2, for which the “Expression” value is reported as 1.90E+08.

B3: the “Expression” value worked out at 4.92E+05.
